B1: 82 (protein)
chain: STAIAQEGAAPAAILHPEKWPRPATQRLIDPAVEKRVDALLKQLSVEEKVGQVIQGDIGTITPEDLRKYPLGSILAGGNSGPNGDDRAPPKEWLDLADAFYRVSLEKRPGHTPIPVLFGIDAVHGHGKIGSATIFPHNIALGATRSPELLRRIGEVTAVEMAATGIDWTFAPALSVVRDDRWGRTYEGFSEDPEIVAAYSAAIVEGVQGKFGSKDFMAPGRAVACAKHFLADGGTDQGRDQGDARISEDELIRIHNAGYPPAIDAGVLTVMASFSSWQGIKHHGHKQLLTDVLKGQMGFNGFIVGDWNAHDQVPGCTKFNCPTSLIAGLDMYMAADSWKQLYENTLAQVKDGTIPMARLDDAVRRILRVKVLAGLFEKPAPKDRPGLPGLETLGSPEHRAVGREAVRKSLVLLKNDKGTLPLSPKARVLVAGDGADNIGKQSGGWTISWQGTGNRNDEFPGATSILGGIRDAVADAGGSVEFDVAGQYKTKPDVAIVVFGEEPYAEFQGDVETLEYQPDQKQDLALLKKLKDQGIPVVAVFLSGRPMWVNPELNASDAFVAAWLPGTEGGGVADVLFTDKAGKVQHDFAGKLSYSWPRTAAQTTVNRGDADYNPLFAYGYGLTYKDKSKVGTLPEESGVPAEARQNAGIYFRAGALRLPGRFL
B2: 101 (protein)
chain: B1 chain with K128N, S146D, A162T
B3: 203 (protein)
chain: B1 chain with N79D, K128N, A143M, S146D, V159E, A198S, A222I, C225S, A485P
B4: 93 (protein)
chain: B1 chain with K128N, S146D, F211Y, A222I, C225S
B5: 209 (protein)
chain: B1 chain with N79D, K128N, A143M, S146D, V159E, A198S, A222I, C225S, M331L, A485P
B6: 199 (protein)
chain: B1 chain with N79D, K128N, A143M, S146D, V159E, A198S, S213P, G220V, A222I, C225S
B7: 91 (protein)
chain: B1 chain with N79D, K128N, A143M, S146D, A222I, C225S
B8: 207 (protein)
chain: B1 chain with N79D, K128N, A143M, S146D, V159E, A198S, A222I, C225S, T604P
B9: 206 (protein)
chain: B1 chain with N79D, K128N, A143M, S146D, V159E, A198S, S213P, A222I, C225S
B10: 202 (protein)
chain: B1 chain with N79D, K128N, A143M, S146D, V159E, A198S, A222I, C225S, G570P
B11: 208 (protein)
chain: B1 chain with G59R, N79D, K128N, A143M, S146D, V159E, A198S, A222I, C225S
B12: 87 (protein)
chain: B1 chain with N79D, K128N, A143M, S146D, A198S, F211Y, A222I, C225S
B13: 84 (protein)
chain: B1 chain with S146D, C225S
B14: 97 (protein)
chain: B1 chain with K128N, A143M, S146D, F211Y, A222I, C225S, E642A, A643P
B15: 200 (protein)
chain: B1 chain with N79D, K128N, A143M, S146D, V159E, A198S, A222I, C225S
B16: 198 (protein)
chain: B1 chain with N79D, K128N, A143M, S146D, V159E, A198S, S213P, A222I, C225S, A485P
B17: 89 (protein)
chain: B1 chain with N79D, K128N, S146D, A198S, P219V, A222I, C225S
B18: 85 (protein)
chain: B1 chain with N79D, D85N, K128N, S146D, F211Y, A222I, C225S
B19: 102 (protein)
chain: B1 chain with K128N, S146D, A162T, A222I, A573S
B20: 201 (protein)
chain: B1 chain with N79D, K128N, A143M, S146D, V159E, A198S, A222I, C225S, A539V
B21: 95 (protein)
chain: B1 chain with K128N, S146D, V159Q, A198S, F211Y, A222I, C225S
B22: 92 (protein)
chain: B1 chain with K128N, A143M, S146D, A222I, C225S
B23: 197 (protein)
chain: B1 chain with N79D, K128N, A143M, S146D, V159E, A198S, A222I, C225S, A485P, T604P
B24: 99 (protein)
chain: B1 chain with S146D, A222S
B25: 88 (protein)
chain: B1 chain with N79D, K128N, S146D, A222I, C225S
B26: 86 (protein)
chain: B1 chain with K128N, A143M, S146D, A198S, P219M, A222I, C225S
B27: 96 (protein)
chain: B1 chain with K128N, A143M, S146D, V159E, F211Y, A222I, C225S
B28: 98 (protein)
chain: B1 chain with T2A, K128N, S146D, A162T, A201P, C225S
B29: 205 (protein)
chain: B1 chain with N79D, K128N, A143M, S146D, V159E, A198S, A222I, C225S, S479A
B30: 90 (protein)
chain: B1 chain with N79D, K128N, S146D, F211Y, A222I, C225S
B31: 204 (protein)
chain: B1 chain with Q26R, N79D, K128N, A143M, S146D, V159E, A198S, A222I, C225S, T604P
B32: 83 (protein)
chain: B1 chain with K128N, S146D, A525T
B33: 103 (protein)
chain: STAIAQEGAAPAAILHPEKWPRPATQRLIDPAVEKRVDALLKQLSVEEKVGQVIQGDIGTITPEDLRKYPLGSILAGGNSGPNGDDRAPPKEWLDLADAFYRVSLEKRPGHTPIPVLFGIDAVHGHGNIGSATIFPHNIALGATRDPELLRRIGEVTAVEMAATGIDWTFAPALSVVRDDRWGRTYEGFSEDPEIVAAYSAAIVEGVQGKFGSKDFMAPGRIVASAKHFLADGGTDQGRDQGDARISEDELIRIHNAGYPPAIDAGVLTVMASFSSWQGIKHHGHKQLLTDVLKGQMGFNGFIVGDWNAHDQVPGCTKFNCPTSLIAGLDMYMAADSWKQLYENTLAQVKDGTIPMARLDDAVRRILRVKVLAGLFEKPAPKDRPGLPGLETLGSPEHRAVGREAVRKSLVLLKNDKGTLPLSPKARVLVAGDGADNIGKQSGGWTISWQGTGNRNDEFPGATSILGGIRDAVADAGGSVEFDVAGQYKTKPDVAIVVFGEEPYAEFQGDVETLEYQPDQKQDLALLKKLKDQGIPVVAVFLSGRPMWVNPELNASDAFVAAWLPGTEGGGVADVLFTDKAGKVQHDFAGKLSYSWPRTAAQTTVNRGDADYNPLFAYGYGLTYKDKSKVGTLPEESGVPAEARQN

We go through 33 molecules from US8357523B2, “Beta-glucosidase variant enzymes and related polynucleotides” (Codexis, Inc., priority 2009, dated 2013).

Residue numbers refer to the chain shown, from its start.

The nature of the data set: High throughput cellobiose assay: fold improvement in cellobiase activity of CelA variants over a control enzyme (Tables 2A-2D, 3, 5, 6, 7). The note with it: 3.3 g/l cellobiose, 55° C. and pH 6.0. The class given is biochemical.
For B1, the “Fold improvement over Control Variant No. 5 from Table 2A” value is on record as “+++ (+++ = 6 to 13 fold improvement over control Variant No. 2)”.

In the case of B2, the “Fold improvement over Control Variant No. 5 from Table 2A” value is recorded as “+++ (+++ = 6 to 13 fold improvement over control Variant No. 2)”.

As for B3, the “Fold improvement over Control Variant No. 5 from Table 2A” value is on record as “++ (++ = 1.1 to 6 fold improvement over control Variant No. 2)”.

As for B4, the “Fold improvement over Control Variant No. 5 from Table 2A” value is “++ (++ = 1.1 to 6 fold improvement over control Variant No. 2)”.

B5: the “Fold improvement over Control Variant No. 5 from Table 2A” value is recorded as “++ (++ = 1.1 to 6 fold improvement over control Variant No. 2)”.

In the case of B6, the “Fold improvement over Control Variant No. 5 from Table 2A” value is given as “++ (++ = 1.1 to 6 fold improvement over control Variant No. 2)”.

As to B7, the “Fold improvement over Control Variant No. 5 from Table 2A” value is listed as “+++ (+++ = 6 to 13 fold improvement over control Variant No. 2)”.

Consider B8, for which the “Fold improvement over Control Variant No. 5 from Table 2A” value is “++ (++ = 1.1 to 6 fold improvement over control Variant No. 2)”.

On to B9, for which the “Fold improvement over Control Variant No. 5 from Table 2A” value was “++ (++ = 1.1 to 6 fold improvement over control Variant No. 2)”.

For the molecule B10, the “Fold improvement over Control Variant No. 5 from Table 2A” value is listed as “++ (++ = 1.1 to 6 fold improvement over control Variant No. 2)”.

Regarding B11, the “Fold improvement over Control Variant No. 5 from Table 2A” value was “++ (++ = 1.1 to 6 fold improvement over control Variant No. 2)”.

For the molecule B12, the “Fold improvement over Control Variant No. 5 from Table 2A” value is listed as “+++ (+++ = 6 to 13 fold improvement over control Variant No. 2)”.

For the molecule B13, the “Fold improvement over Control Variant No. 5 from Table 2A” value was “+++ (+++ = 6 to 13 fold improvement over control Variant No. 2)”.

As for B14, the “Fold improvement over Control Variant No. 5 from Table 2A” value is given as “+++ (+++ = 6 to 13 fold improvement over control Variant No. 2)”.

For the molecule B15, the “Fold improvement over Control Variant No. 5 from Table 2A” value is given as “+++ (+++ = 6 to 13 fold improvement over control Variant No. 2)”.

In the case of B16, the “Fold improvement over Control Variant No. 5 from Table 2A” value is “++ (++ = 1.1 to 6 fold improvement over control Variant No. 2)”.

As to B17, the “Fold improvement over Control Variant No. 5 from Table 2A” value is recorded as “++ (++ = 1.1 to 6 fold improvement over control Variant No. 2)”.

Take B18: the “Fold improvement over Control Variant No. 5 from Table 2A” value is given as “++ (++ = 1.1 to 6 fold improvement over control Variant No. 2)”.

Regarding B19, the “Fold improvement over Control Variant No. 5 from Table 2A” value is recorded as “++ (++ = 1.1 to 6 fold improvement over control Variant No. 2)”.

B20: the “Fold improvement over Control Variant No. 5 from Table 2A” value is recorded as “++ (++ = 1.1 to 6 fold improvement over control Variant No. 2)”.

B21: the “Fold improvement over Control Variant No. 5 from Table 2A” value is reported as “++ (++ = 1.1 to 6 fold improvement over control Variant No. 2)”.

In the case of B22, the “Fold improvement over Control Variant No. 5 from Table 2A” value is recorded as “++ (++ = 1.1 to 6 fold improvement over control Variant No. 2)”.

B23: the “Fold improvement over Control Variant No. 5 from Table 2A” value was “++ (++ = 1.1 to 6 fold improvement over control Variant No. 2)”.

For the molecule B24, the “Fold improvement over Control Variant No. 5 from Table 2A” value is recorded as “+++ (+++ = 6 to 13 fold improvement over control Variant No. 2)”.

Regarding B25, the “Fold improvement over Control Variant No. 5 from Table 2A” value is on record as “++ (++ = 1.1 to 6 fold improvement over control Variant No. 2)”.

In the case of B26, the “Fold improvement over Control Variant No. 5 from Table 2A” value is listed as “++ (++ = 1.1 to 6 fold improvement over control Variant No. 2)”.

As to B27, the “Fold improvement over Control Variant No. 5 from Table 2A” value is on record as “++ (++ = 1.1 to 6 fold improvement over control Variant No. 2)”.

As for B28, the “Fold improvement over Control Variant No. 5 from Table 2A” value is “+++ (+++ = 6 to 13 fold improvement over control Variant No. 2)”.

As for B29, the “Fold improvement over Control Variant No. 5 from Table 2A” value was “++ (++ = 1.1 to 6 fold improvement over control Variant No. 2)”.

B30: the “Fold improvement over Control Variant No. 5 from Table 2A” value is “++ (++ = 1.1 to 6 fold improvement over control Variant No. 2)”.

As to B31, the “Fold improvement over Control Variant No. 5 from Table 2A” value is reported as “++ (++ = 1.1 to 6 fold improvement over control Variant No. 2)”.

Take B32: the “Fold improvement over Control Variant No. 5 from Table 2A” value was “+++ (+++ = 6 to 13 fold improvement over control Variant No. 2)”.

For B33, the “Fold improvement over Control Variant No. 5 from Table 2A” value is reported as “++ (++ = 1.1 to 6 fold improvement over control Variant No. 2)”.
